Data as given in patent US20240279278A1, “NMU RECEPTOR 2 AGONISTS” (Boehringer Ingelheim International GmbH, priority 2023, published 2024).

B1: C20DA-gGlu3-Sar15-AEPipAc-Tyr-Phe-NMeLeu-Nle-Arg-NMeAla-Arg-Gly-NH2 (peptide)
peptide: EEEXXXXXXXXXXXXXXXXYFLXRARG
HELM: PEPTIDE1{[O=C(O)CCCCCCCCCCCCCCCCCCC(=O)[*:2]].[gGlu].[gGlu].[gGlu].[Sar].[Sar].[Sar].[Sar].[Sar].[Sar].[Sar].[Sar].[Sar].[Sar].[Sar].[Sar].[Sar].[Sar].[Sar].[O=C(CN1CCN(CCN[*:1])CC1)[*:2]].Y.F.[meL].[Nle].R.[meA].R.G.[am]}$$$$V2.0
SMILES: CCCC[C@H](NC(=O)[C@H](CC(C)C)N(C)C(=O)[C@H](Cc1ccccc1)NC(=O)[C@H](Cc1ccc(O)cc1)NC(=O)CN1CCN(CCNC(=O)CN(C)C(=O)CN(C)C(=O)CN(C)C(=O)CN(C)C(=O)CN(C)C(=O)CN(C)C(=O)CN(C)C(=O)CN(C)C(=O)CN(C)C(=O)CN(C)C(=O)CN(C)C(=O)CN(C)C(=O)CN(C)C(=O)CN(C)C(=O)CN(C)C(=O)CC[C@H](NC(=O)CC[C@H](NC(=O)CC[C@H](NC(=O)CCCCCCCCCCCCCCCCCCC(=O)O)C(=O)O)C(=O)O)C(=O)O)CC1)C(=O)N[C@@H](CCCNC(=N)N)C(=O)N(C)[C@@H](C)C(=O)N[C@@H](CCCNC(=N)N)C(=O)NCC(N)=O
B2: C20DA-gGlu3-Sar12-AEPipAc-Tyr-Phe-NMeLeu-Nle-Arg-Pro-Arg-Gly-NH2 (peptide)
peptide: EEEXXXXXXXXXXXXXYFLXRPRG
HELM: PEPTIDE1{[O=C(O)CCCCCCCCCCCCCCCCCCC(=O)[*:2]].[gGlu].[gGlu].[gGlu].[Sar].[Sar].[Sar].[Sar].[Sar].[Sar].[Sar].[Sar].[Sar].[Sar].[Sar].[Sar].[O=C(CN1CCN(CCN[*:1])CC1)[*:2]].Y.F.[meL].[Nle].R.P.R.G.[am]}$$$$V2.0
SMILES: CCCC[C@H](NC(=O)[C@H](CC(C)C)N(C)C(=O)[C@H](Cc1ccccc1)NC(=O)[C@H](Cc1ccc(O)cc1)NC(=O)CN1CCN(CCNC(=O)CN(C)C(=O)CN(C)C(=O)CN(C)C(=O)CN(C)C(=O)CN(C)C(=O)CN(C)C(=O)CN(C)C(=O)CN(C)C(=O)CN(C)C(=O)CN(C)C(=O)CN(C)C(=O)CN(C)C(=O)CC[C@H](NC(=O)CC[C@H](NC(=O)CC[C@H](NC(=O)CCCCCCCCCCCCCCCCCCC(=O)O)C(=O)O)C(=O)O)C(=O)O)CC1)C(=O)N[C@@H](CCCNC(=N)N)C(=O)N1CCC[C@H]1C(=O)N[C@@H](CCCNC(=N)N)C(=O)NCC(N)=O
B3: C18DA-gGlu3-Sar12-AEPipAc-Tyr-Phe-NMeLeu-Nle-Orn-Pro-Arg-Gly-NH2 (peptide)
peptide: EEEXXXXXXXXXXXXXYFLXXPRG
HELM: PEPTIDE1{[O=C(O)CCCCCCCCCCCCCCCCC(=O)[*:2]].[gGlu].[gGlu].[gGlu].[Sar].[Sar].[Sar].[Sar].[Sar].[Sar].[Sar].[Sar].[Sar].[Sar].[Sar].[Sar].[O=C(CN1CCN(CCN[*:1])CC1)[*:2]].Y.F.[meL].[Nle].[Orn].P.R.G.[am]}$$$$V2.0
SMILES: CCCC[C@H](NC(=O)[C@H](CC(C)C)N(C)C(=O)[C@H](Cc1ccccc1)NC(=O)[C@H](Cc1ccc(O)cc1)NC(=O)CN1CCN(CCNC(=O)CN(C)C(=O)CN(C)C(=O)CN(C)C(=O)CN(C)C(=O)CN(C)C(=O)CN(C)C(=O)CN(C)C(=O)CN(C)C(=O)CN(C)C(=O)CN(C)C(=O)CN(C)C(=O)CN(C)C(=O)CC[C@H](NC(=O)CC[C@H](NC(=O)CC[C@H](NC(=O)CCCCCCCCCCCCCCCCC(=O)O)C(=O)O)C(=O)O)C(=O)O)CC1)C(=O)N[C@@H](CCCN)C(=O)N1CCC[C@H]1C(=O)N[C@@H](CCCNC(=N)N)C(=O)NCC(N)=O
B4: C18DA-gGlu3-Sar15-AEPipAc-Tyr-Phe-NMeLeu-Nle-Arg-Pro-Arg-Gly-NH2 (peptide)
peptide: EEEXXXXXXXXXXXXXXXXYFLXRPRG
HELM: PEPTIDE1{[O=C(O)CCCCCCCCCCCCCCCCC(=O)[*:2]].[gGlu].[gGlu].[gGlu].[Sar].[Sar].[Sar].[Sar].[Sar].[Sar].[Sar].[Sar].[Sar].[Sar].[Sar].[Sar].[Sar].[Sar].[Sar].[O=C(CN1CCN(CCN[*:1])CC1)[*:2]].Y.F.[meL].[Nle].R.P.R.G.[am]}$$$$V2.0
SMILES: CCCC[C@H](NC(=O)[C@H](CC(C)C)N(C)C(=O)[C@H](Cc1ccccc1)NC(=O)[C@H](Cc1ccc(O)cc1)NC(=O)CN1CCN(CCNC(=O)CN(C)C(=O)CN(C)C(=O)CN(C)C(=O)CN(C)C(=O)CN(C)C(=O)CN(C)C(=O)CN(C)C(=O)CN(C)C(=O)CN(C)C(=O)CN(C)C(=O)CN(C)C(=O)CN(C)C(=O)CN(C)C(=O)CN(C)C(=O)CN(C)C(=O)CC[C@H](NC(=O)CC[C@H](NC(=O)CC[C@H](NC(=O)CCCCCCCCCCCCCCCCC(=O)O)C(=O)O)C(=O)O)C(=O)O)CC1)C(=O)N[C@@H](CCCNC(=N)N)C(=O)N1CCC[C@H]1C(=O)N[C@@H](CCCNC(=N)N)C(=O)NCC(N)=O
B5: C20DA-gGlu3-Sar9-AEPipAc-Tyr-Phe-NMeLeu-Nle-Arg-Pro-Arg-Gly-NH2 (peptide)
peptide: EEEXXXXXXXXXXYFLXRPRG
HELM: PEPTIDE1{[O=C(O)CCCCCCCCCCCCCCCCCCC(=O)[*:2]].[gGlu].[gGlu].[gGlu].[Sar].[Sar].[Sar].[Sar].[Sar].[Sar].[Sar].[Sar].[Sar].[O=C(CN1CCN(CCN[*:1])CC1)[*:2]].Y.F.[meL].[Nle].R.P.R.G.[am]}$$$$V2.0
SMILES: CCCC[C@H](NC(=O)[C@H](CC(C)C)N(C)C(=O)[C@H](Cc1ccccc1)NC(=O)[C@H](Cc1ccc(O)cc1)NC(=O)CN1CCN(CCNC(=O)CN(C)C(=O)CN(C)C(=O)CN(C)C(=O)CN(C)C(=O)CN(C)C(=O)CN(C)C(=O)CN(C)C(=O)CN(C)C(=O)CN(C)C(=O)CC[C@H](NC(=O)CC[C@H](NC(=O)CC[C@H](NC(=O)CCCCCCCCCCCCCCCCCCC(=O)O)C(=O)O)C(=O)O)C(=O)O)CC1)C(=O)N[C@@H](CCCNC(=N)N)C(=O)N1CCC[C@H]1C(=O)N[C@@H](CCCNC(=N)N)C(=O)NCC(N)=O
B6: C20DA-gGlu3-Sar15-AEPipAc-Tyr-Phe-NMeLeu-Nle-Arg-Pro-Arg-Gly-NH2 (peptide)
peptide: EEEXXXXXXXXXXXXXXXXYFLXRPRG
HELM: PEPTIDE1{[O=C(O)CCCCCCCCCCCCCCCCCCC(=O)[*:2]].[gGlu].[gGlu].[gGlu].[Sar].[Sar].[Sar].[Sar].[Sar].[Sar].[Sar].[Sar].[Sar].[Sar].[Sar].[Sar].[Sar].[Sar].[Sar].[O=C(CN1CCN(CCN[*:1])CC1)[*:2]].Y.F.[meL].[Nle].R.P.R.G.[am]}$$$$V2.0
SMILES: CCCC[C@H](NC(=O)[C@H](CC(C)C)N(C)C(=O)[C@H](Cc1ccccc1)NC(=O)[C@H](Cc1ccc(O)cc1)NC(=O)CN1CCN(CCNC(=O)CN(C)C(=O)CN(C)C(=O)CN(C)C(=O)CN(C)C(=O)CN(C)C(=O)CN(C)C(=O)CN(C)C(=O)CN(C)C(=O)CN(C)C(=O)CN(C)C(=O)CN(C)C(=O)CN(C)C(=O)CN(C)C(=O)CN(C)C(=O)CN(C)C(=O)CC[C@H](NC(=O)CC[C@H](NC(=O)CC[C@H](NC(=O)CCCCCCCCCCCCCCCCCCC(=O)O)C(=O)O)C(=O)O)C(=O)O)CC1)C(=O)N[C@@H](CCCNC(=N)N)C(=O)N1CCC[C@H]1C(=O)N[C@@H](CCCNC(=N)N)C(=O)NCC(N)=O
B7: C20DA-gGlu3-Sar12-AEPipAc-Tyr-Phe-NMeLeu-Nle-Dbu-Pro-Arg-Gly-NH2 (peptide)
peptide: EEEXXXXXXXXXXXXXYFLXXPRG
HELM: PEPTIDE1{[O=C(O)CCCCCCCCCCCCCCCCCCC(=O)[*:2]].[gGlu].[gGlu].[gGlu].[Sar].[Sar].[Sar].[Sar].[Sar].[Sar].[Sar].[Sar].[Sar].[Sar].[Sar].[Sar].[O=C(CN1CCN(CCN[*:1])CC1)[*:2]].Y.F.[meL].[Nle].[Dab].P.R.G.[am]}$$$$V2.0
SMILES: CCCC[C@H](NC(=O)[C@H](CC(C)C)N(C)C(=O)[C@H](Cc1ccccc1)NC(=O)[C@H](Cc1ccc(O)cc1)NC(=O)CN1CCN(CCNC(=O)CN(C)C(=O)CN(C)C(=O)CN(C)C(=O)CN(C)C(=O)CN(C)C(=O)CN(C)C(=O)CN(C)C(=O)CN(C)C(=O)CN(C)C(=O)CN(C)C(=O)CN(C)C(=O)CN(C)C(=O)CC[C@H](NC(=O)CC[C@H](NC(=O)CC[C@H](NC(=O)CCCCCCCCCCCCCCCCCCC(=O)O)C(=O)O)C(=O)O)C(=O)O)CC1)C(=O)N[C@@H](CCN)C(=O)N1CCC[C@H]1C(=O)N[C@@H](CCCNC(=N)N)C(=O)NCC(N)=O
B8: C18DA-gGlu3-Sar15-AEPipAc-Tyr-Phe-NMeLeu-Nle-Arg-NMeAla-Arg-Gly-NH2 (peptide)
peptide: EEEXXXXXXXXXXXXXXXXYFLXRARG
HELM: PEPTIDE1{[O=C(O)CCCCCCCCCCCCCCCCC(=O)[*:2]].[gGlu].[gGlu].[gGlu].[Sar].[Sar].[Sar].[Sar].[Sar].[Sar].[Sar].[Sar].[Sar].[Sar].[Sar].[Sar].[Sar].[Sar].[Sar].[O=C(CN1CCN(CCN[*:1])CC1)[*:2]].Y.F.[meL].[Nle].R.[meA].R.G.[am]}$$$$V2.0
SMILES: CCCC[C@H](NC(=O)[C@H](CC(C)C)N(C)C(=O)[C@H](Cc1ccccc1)NC(=O)[C@H](Cc1ccc(O)cc1)NC(=O)CN1CCN(CCNC(=O)CN(C)C(=O)CN(C)C(=O)CN(C)C(=O)CN(C)C(=O)CN(C)C(=O)CN(C)C(=O)CN(C)C(=O)CN(C)C(=O)CN(C)C(=O)CN(C)C(=O)CN(C)C(=O)CN(C)C(=O)CN(C)C(=O)CN(C)C(=O)CN(C)C(=O)CC[C@H](NC(=O)CC[C@H](NC(=O)CC[C@H](NC(=O)CCCCCCCCCCCCCCCCC(=O)O)C(=O)O)C(=O)O)C(=O)O)CC1)C(=O)N[C@@H](CCCNC(=N)N)C(=O)N(C)[C@@H](C)C(=O)N[C@@H](CCCNC(=N)N)C(=O)NCC(N)=O

Molecular target: T1, human neuromedin U receptor 1 (human, UniProt Q9HB89 24-426)
T1 sequence (looked up): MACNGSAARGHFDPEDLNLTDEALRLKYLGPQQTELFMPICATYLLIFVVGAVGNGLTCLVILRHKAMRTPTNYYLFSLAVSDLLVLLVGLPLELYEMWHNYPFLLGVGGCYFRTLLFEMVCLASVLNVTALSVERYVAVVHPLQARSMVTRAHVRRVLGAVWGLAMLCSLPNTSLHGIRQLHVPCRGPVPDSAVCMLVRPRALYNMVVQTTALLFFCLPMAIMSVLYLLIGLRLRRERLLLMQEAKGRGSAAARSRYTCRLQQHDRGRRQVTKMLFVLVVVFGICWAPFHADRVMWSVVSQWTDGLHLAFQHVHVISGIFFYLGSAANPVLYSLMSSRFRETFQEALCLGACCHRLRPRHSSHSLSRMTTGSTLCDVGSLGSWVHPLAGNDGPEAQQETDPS
Assay: cell-based or functional assay

Binder	EC50 (hNMUR1) buffer
B1	0.72 µM
B2	0.12 µM
B3	0.66 µM
B4	0.25 µM
B5	0.13 µM
B6	0.22 µM
B7	1 µM
B8	1.1 µM
